Data as given in paper PMC6717526 (Cellular signalling, 2019).

Molecular target: bovine arrestin-3^1−393 (truncated arrestin-3, residues 1–393), purified (bovine, UniProt P32120 1-393)
Assay: MST

bovine arrestin-3^1−393 (truncated arrestin-3, residues 1–393), purified, sequence (P32120 1-393): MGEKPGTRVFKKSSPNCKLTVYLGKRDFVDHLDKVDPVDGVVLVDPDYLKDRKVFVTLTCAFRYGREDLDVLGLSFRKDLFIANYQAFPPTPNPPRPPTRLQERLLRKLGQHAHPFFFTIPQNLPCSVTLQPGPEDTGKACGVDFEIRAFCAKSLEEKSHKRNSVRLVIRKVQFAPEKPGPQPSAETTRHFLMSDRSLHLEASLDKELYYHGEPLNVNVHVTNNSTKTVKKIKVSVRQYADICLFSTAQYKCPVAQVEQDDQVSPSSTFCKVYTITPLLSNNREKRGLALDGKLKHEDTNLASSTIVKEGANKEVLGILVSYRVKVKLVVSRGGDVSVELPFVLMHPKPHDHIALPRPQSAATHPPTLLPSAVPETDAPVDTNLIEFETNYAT

Kd: 130 ± 35 nM
B1: human His-MELK^1−326,T167E (maternal embryonic leucine-zipper kinase, kinase domain and flanking ubiquitin-associated domain, residues 1–326, T167E) (domain or fragment, UniProt Q14680 1-326, looked up)
chain: MKDYDELLKYYELHETIGTGGFAKVKLACHILTGEMVAIKIMDKNTLGSDLPRIKTEIEALKNLRHQHICQLYHVLETANKIFMVLEYCPGGELFDYIISQDRLSEEETRVVFRQIVSAVAYVHSQGYAHRDLKPENLLFDEYHKLKLIDFGLCAKPKGNKDYHLQECCGSLAYAAPELIQGKSYLGSEADVWSMGILLYVLMCGFLPFDDDNVMALYKKIMRGKYDVPKWLSPSSILLLQQMLQVDPKKRISMKNLLNHPWIMQDYNYPVEWQSKNPFIHLDDDCVTELSVHHRNNRQTMEDLISLWQYDHLTATYLLLLAKKAR
modifications: RED-tris-NTA dye on the His tag (in the MST experiment only)
